Columns and labels:
[1] = target: T1, human Bcl-XL protein produced as a GST fusion (Homo sapiens, UniProt Q07817); assay: Binding of mRNA display constructs to Bcl-XL-GST fusion protein immobilized on glutathione Sepharose beads (scintillation counting); settings: BH3 domain or control peptides as individual mRNA display constructs, 1 hr 4° C.
T1 construct: made in house; host or cells: E. coli BL21 (DE3) pLysS
Protocol: Detection of a polypeptide binding to a Bcl-XL-glutathione S-transferase (GST) fusion protein was carried out as follows. Twenty microliters of glutathione Sepharose 4B slurry (AP Biotech) was aliquoted to a microcentrifuge tube and washed with PBS. The Bcl-XL-GST fusion protein (60 μg), prepared as describe above, was added and allowed to bind to the Sepharose beads for 1 hr at 4° C. The beads were then re-washed in selection buffer (50 mM Tris-HCL pH 7.5, 150 mM KCl, 0.05% Triton X-100, 0.5 mg/ml BSA, and 0.1 mg/ml salmon sperm DNA). […] The extent of binding between the Bcl-XL-GST fusion protein and the mRNA display constructs or free peptides was determined by scintillation counting each fraction, including the recovered beads.
Members of the Bcl-2 family of apoptotic proteins function via homo- and heterodimerization, occurring primarily through the binding of a single α-helix designated the BH3 domain (Bcl-2 Homology domain 3) in a corresponding pocket produced by three α-helices in the interacting partner (Diaz et al., J. Biol. Chem. 272:11350-11355, 1997; and Sattler et al., Science 275:983-986, 1997). […] The amount of peptide bound to the beads was determined by scintillation counting and graphed as the percent of input counts bound (FIG. 2B).

[2] = target: human Bcl-XL-GST fusion protein (human) [GST: P08515]; assay: purified labeled free peptide on immobilized Bcl-XL-GST
Sequence of human Bcl-XL-GST fusion protein (human) [GST: P08515] (P08515 1-218, tags or fused parts left off): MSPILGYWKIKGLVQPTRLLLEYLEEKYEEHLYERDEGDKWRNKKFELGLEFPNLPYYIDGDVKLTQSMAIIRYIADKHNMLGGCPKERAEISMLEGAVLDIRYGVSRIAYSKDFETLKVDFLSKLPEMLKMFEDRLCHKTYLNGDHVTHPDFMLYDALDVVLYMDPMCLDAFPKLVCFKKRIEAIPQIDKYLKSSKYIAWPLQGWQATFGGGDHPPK

[3] = target: T2, Bcl-XL-GST fusion protein (Homo sapiens, UniProt Q07817); assay: Free purified polypeptide binding to Bcl-XL-GST fusion protein (additional selection, FIG. 9); settings: purified free polypeptides
T2 construct: made in house; host or cells: E. coli BL21 (DE3) pLysS
T2 sequence (Q07817 1-211): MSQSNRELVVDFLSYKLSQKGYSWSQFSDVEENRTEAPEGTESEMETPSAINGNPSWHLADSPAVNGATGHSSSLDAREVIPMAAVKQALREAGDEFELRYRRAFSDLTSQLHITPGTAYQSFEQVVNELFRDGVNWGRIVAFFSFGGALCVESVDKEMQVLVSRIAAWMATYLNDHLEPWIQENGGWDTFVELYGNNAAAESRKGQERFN
Protocol: (§1) Detection of a polypeptide binding to a Bcl-XL-glutathione S-transferase (GST) fusion protein was carried out as follows. Twenty microliters of glutathione Sepharose 4B slurry (AP Biotech) was aliquoted to a microcentrifuge tube and washed with PBS. The Bcl-XL-GST fusion protein (60 μg), prepared as describe above, was added and allowed to bind to the Sepharose beads for 1 hr at 4° C. The beads were then re-washed in selection buffer (50 mM Tris-HCL pH 7.5, 150 mM KCl, 0.05% Triton X-100, 0.5 mg/ml BSA, and 0.1 mg/ml salmon sperm DNA). The Bcl-XL-GST beads were resuspended in 100 μl of selection buffer (approximately 11.5 μM Bcl-XL) and ^35S-labeled mRNA display construct or free peptide was added (approximately 10-60 nM) and incubated on a rotator for 1 hr at 4° C. The reaction was then transferred to a microcentrifuge column (BioRad) and unbound mRNA display constructs or free peptides were removed by a 10 sec spin at 1,000 rpm. The Sepharose beads were then washed three times with 500 μl of selection buffer. The extent of binding between the Bcl-XL-GST fusion protein and the mRNA display constructs or free peptides was determined by scintillation counting each fraction, including the recovered beads. […]

[4] = target: T3, human Bcl-XL-GST fusion protein (human, UniProt P08515 1-218 = GST; Q07817 1-211); assay: labeled free peptide on Bcl-XL-GST beads, immobilized target varied from 11 nM to 28 µM
T3 construct: Made in E. coli, immobilized on glutathione Sepharose beads; whole entry named; also called Bcl-XL-glutathione S-transferase (GST) fusion protein; GST-BCL-XL
T3 sequence (P08515 1-218, tags or fused parts left off): as the sequence (P08515 1-218, tags or fused parts left off) above
Protocol: Detection of a polypeptide binding to a Bcl-XL-glutathione S-transferase (GST) fusion protein was carried out as follows. Twenty microliters of glutathione Sepharose 4B slurry (AP Biotech) was aliquoted to a microcentrifuge tube and washed with PBS. The Bcl-XL-GST fusion protein (60 μg), prepared as describe above, was added and allowed to bind to the Sepharose beads for 1 hr at 4° C. The beads were then re-washed in selection buffer (50 mM Tris-HCL pH 7.5, 150 mM KCl, 0.05% Triton X-100, 0.5 mg/ml BSA, and 0.1 mg/ml salmon sperm DNA). The Bcl-XL-GST beads were resuspended in 100 μl of selection buffer (approximately 11.5 μM Bcl-XL) and ³⁵S-labeled mRNA display construct or free peptide was added (approximately 10-60 nM) and incubated on a rotator for 1 hr at 4° C. […] The extent of binding between the Bcl-XL-GST fusion protein and the mRNA display constructs or free peptides was determined by scintillation counting each fraction, including the recovered beads.
Purified radioactively labeled protein from the individual clones was incubated with immobilized Bcl-XL-GST for one hour and, after washing, the amount bound was determined by scintillation counting. […] The amount of peptide bound to Bcl-XL was determined by scintillation counting and normalized to that bound at the highest concentration. […]

[5] = target: T3, human Bcl-XL-GST fusion protein; assay: labeled free peptide on immobilized Bcl-XL-GST with Bak BH3 competitor
Protocol: Only three of the selected proteins (Bim, Bak, and Bax) were previously known to contain a BH3 domain. In order to determine if the other proteins bound to the BH3 domain binding site on Bcl-XL, a competition assay was performed. The Bak BH3 domain peptide used as a positive control was prepared by chemical synthesis and used to compete with individual Bcl-XL-binding polypeptides in a Bcl-XL binding assay. […] At a fixed concentration of immobilized Bcl-XL, the Bak BH3 domain-containing peptide […] (SEQ ID NO: 152), also containing a FLAG-M2 epitope, was added at the indicated concentration along with a trace amount of a selected Talin fragment. After binding for 1 hour, the unbound material was removed and the bound protein was quantitated. The bound protein was assayed by scintillation counting, normalized to that bound in the absence of competitor, and plotted versus competitor concentration.
A competition assay was performed for each of the selected Bcl-XL-binding polypeptides using 20 μM Bak BH3 competitor based on the titration shown in FIG. 6.

[6] = target: T3, human Bcl-XL-GST fusion protein; assay: 35S-labeled mRNA display construct on Bcl-XL-GST glutathione Sepharose beads, scintillation counting
Protocol: as §1, with “³⁵S-labeled” for “^35S-labeled”

T1 sequence (Q07817 1-211): as the sequence (Q07817 1-211) above

Bcl-2: BH3 domain of Bcl-2 prepared as mRNA display construct (FIG. 2A) (PVVHLTLRQAGDDFSR)
percent of input counts bound to Bcl-XL-GST [1]: no binding was observed

Bax (clone AttB-Hc-7) (from UniProt Q07812 40-95) (peptide)
percent bound [2]: 32%

SRP9: selected SRP9 polypeptide of the additional selection, purified free polypeptide (IGEEFSRAAEKLYLAV)
Binding to the Bcl-XL-GST fusion protein [3]: 0.65%

B1: Bak BH3 domain-containing peptide MGQVGRQLAIIGDDINRDYKDDDDKASA (peptide)
peptide: MGQVGRQLAIIGDDINRDYKDDDDKASA
notes: Chemically synthesized free peptide; also called selected Bak fragment
binding result [4]: binds

B2: clone t53 (peptide)
chain: LDPVKDVLILSALRRMLWAADDFLEDLPFEQIG
notes: mRNA display clone from a known polypeptide
binding result [5]: binds

B3: BH3 domain of Bcl-2, mRNA display construct (peptide, UniProt P10415 91-106, looked up)
peptide: PVVHLTLRQAGDDFSR
notes: domain: BH3 domain; Peptide fused to its mRNA through puromycin; also called BH3 helix from Bcl-2
binding result [6]: no binding

Reference: patent US20030032157A1, “Polypeptides interactive with Bcl-XL” (priority 2001, published 2003)
